Assay results taken from IntAct's records for PubMed 29995851.

B1: Protein patched homolog 1 (Homo sapiens), Q13635-1 (parent)
chain: MASAGNAAEPQDRGGGGSGCIGAPGRPAGGGRRRRTGGLRRAAAPDRDYLHRPSYCDAAFALEQISKGKATGRKAPLWLRAKFQRLLFKLGCYIQKNCGKFLVVGLLIFGAFAVGLKAANLETNVEELWVEVGGRVSRELNYTRQKIGEEAMFNPQLMIQTPKEEGANVLTTEALLQHLDSALQASRVHVYMYNRQWKLEHLCYKSGELITETGYMDQIIEYLYPCLIITPLDCFWEGAKLQSGTAYLLGKPPLRWTNFDPLEFLEELKKINYQVDSWEEMLNKAEVGHGYMDRPCLNPADPDCPATAPNKNSTKPLDMALVLNGGCHGLSRKYMHWQEELIVGGTVKNSTGKLVSAHALQTMFQLMTPKQMYEHFKGYEYVSHINWNEDKAAAILEAWQRTYVEVVHQSVAQNSTQKVLSFTTTTLDDILKSFSDVSVIRVASGYLLMLAYACLTMLRWDCSKSQGAVGLAGVLLVALSVAAGLGLCSLIGISFNAATTQVLPFLALGVGVDDVFLLAHAFSETGQNKRIPFEDRTGECLKRTGASVALTSISNVTAFFMAALIPIPALRAFSLQAAVVVVFNFAMVLLIFPAILSMDLYRREDRRLDIFCCFTSPCVSRVIQVEPQAYTDTHDNTRYSPPPPYSSHSFAHETQITMQSTVQLRTEYDPHTHVYYTTAEPRSEISVQPVTVTQDTLSCQSPESTSSTRDLLSQFSDSSLHCLEPPCTKWTLSSFAEKHYAPFLLKPKAKVVVIFLFLGLLGVSLYGTTRVRDGLDLTDIVPRETREYDFIAAQFKYFSFYNMYIVTQKADYPNIQHLLYDLHRSFSNVKYVMLEENKQLPKMWLHYFRDWLQGLQDAFDSDWETGKIMPNNYKNGSDDGVLAYKLLVQTGSRDKPIDISQLTKQRLVDADGIINPSAFYIYLTAWVSNDPVAYAASQANIRPHRPEWVHDKADYMPETRLRIPAAEPIEYAQFPFYLNGLRDTSDFVEAIEKVRTICSNYTSLGLSSYPNGYPFLFWEQYIGLRHWLLLFISVVLACTFLVCAVFLLNPWTAGIIVMVLALMTVELFGMMGLIGIKLSAVPVVILIASVGIGVEFTVHVALAFLTAIGDKNRRAVLALEHMFAPVLDGAVSTLLGVLMLAGSEFDFIVRYFFAVLAILTILGVLNGLVLLPVLLSFFGPYPEVSPANGLNRLPTPSPEPPPSVVRFAMPPGHTHSGSDSSDSEYSSQTTVSGLSEELRHYEAQQGAGGPAHQVIVEATENPVFAHSTVVHPESRHHPPSNPRQQPHLDSGSLPPGRQGQQPRRDPPREGLWPPPYRPRRDAFEISTEGHSGPSNRARWGPRGARSHNPRNPASTAMGSSVPGYCQPITTVTASASVTVAVHPPPVPGPGRNPRGGLCPGYPETDHGLFEDPHVPFHVRCERRDSKVEVIELQDVECEERPRGSSSN

Variants of: B1
Conditions: with shh_human SHH

Row | Variant | effect of a mutation on the interaction
1 | E221A;Y222A;L223A;Y224A | disrupting interaction
2 | L254A;W256A | decreasing interaction strength
